Measured values as given in PMC10973363, “Insights into the modulation of bacterial NADase activity by phage proteins” (Nature Communications, 2024).

B1: tail tube protein (TTP) from phage SPR, His-tagged (natural protein)
chain: MKTVIQDTADVYFKRKSDGKLVFTAEAQTASFSQAISEEKLRGGIGNKPLYILKSEKEINLTVKNAFFDLEWLAMTQGETIQEETKVKVFDREHGLIVDDTNKVTLKGKPVSDVTFYNKKGLTYKIAVSTDGTYTIPTAFAAAKDKLTAVYQIEKVGRRLAIKASKFSERYEVEYRTIAYNPDTEEVYSDIYIQFPNVSPSGEFEMSLENGNALAPEIKFEALADTDTDEMAVVIEASRDENTAAPVEDTTGSTQSSDLGGTTE
notes: tail tube protein of phage SPR, WP_010328117; C-terminal portion aa 240-264 not built in the cryo-EM model of the tube; Cloned into a pET-derived vector with an N-terminal His tag; Alone it polymerises into a tube of hexameric rings (cryo-EM); also called His-tagged TTP; tagged TTP; source: E. coli Rosetta (DE3), purified (Ni-NTA, anion exchange, gel filtration); not shown: His, N-terminal, kept
B2: defense-associated sirtuin 2 (DSR2), full-length wild type (enzyme, Bacillus subtilis 29R, UniProt P0DXN8 1-1005, looked up)
chain: MVKVDLESKRYGEKLKEVFLMLDNNVVECIKEITESSRNGKLVFFVGAGVSTLSDYPQWWRLVDKYHEELYGSPKKGNYSSDEYLRIPQIFYNVKGEMAFDGILKDFFQVDKPTNPIHDKILAMNPAHVITTNYDNLIDTACWKRGKYFSVISAEEDVANATSSRYLLKVHGDFRKGFKGENVVLKEDDYLNYDQNYPLISNLMKTIIATHTIVFIGYGLGDYNINMLLNWVRKLQKDSFHKPFFIRTDPSPIENETLIYYENKGLRIIDAASLIDSNEYDYLERYSAVMDLLIESQENKFITKDDEVIDYIYGKISPLFALQYIRKIDLKHVFEYDYHFEVNGTVVRHKNKGFGYMERFFELKESCDERSKLSKKQYERFNALFNFFEKNGVICMAKDAGTLNTSIEINSLAYHGKYDVMKKFIEEQSVSIEDDYKKAFFLACLGRWEESYDLYSNIILNSIDESNGCVYYLSQINRYRIYQSITQAVTQFNGLGLLTFGRHYKPFTDEFLARIEREMTNFNIDDLFNGMPFEFQKKYKILEFLSDNQFLYDDTVKLFELTNKVRSEMSEGSYSFGMSSDIVVLLRLYDNLRFLYENCLWSVSFHEFHQYIRNSMSLLIEKAEYERTRDIDELGFSFFGKKSGFFMEYYDFVNISRHFKIDDIKNLERSCSIDKIRFGEQEKIEEYLVGIAEEITKQFSANGMNVVFYTQFISEAKAALYFAKYVKLSEEGLGKIVKALLFYFPERDLDIGKRYVWLERLTKCNELPKSIISIIDDFLVLQAEKHIDQNYSEVSSNGLYSRDYGALIKHFEKNFISKRLSEITLCLTQDKQKQIDFLFKLLPLLSTNAKSHLLSFKSVENINDLMNGIRIGLIDEFTPEHEELIIEYLETRKVNYIVEKEKGIQTFSSNDYMSTFGIWYFLEEINNSKMEEFIGMDDQYDFFVDPENFDYKKFIPSWLKNYNDKLLGKIAGNKHMKHHVIEVLKERVKNSNDKRYLEILMNYFI
notes: DSR2 from Bacillus subtilis 29R, WP_029317421; Cloned into the 2CT-10 vector (Addgene plasmid #55209) with His-MBP tag and TEV site; DSR2-TTP was cloned into a pET-derived vector with an N-terminal His tag; also called WT DSR2; full-length DSR2; source: E. coli Rosetta (DE3), purified (Ni-NTA, TEV cleavage, anion exchange, gel filtration); not shown: His, N-terminal, cleaved; MBP, N-terminal, …

Columns and labels:
[1] = target: the molecule itself; assay: cryo-EM structure; protein complexes (co-expressed and co-purified) or TTP tube at 0.5 mg/ml on Quantifoil Au grids, Titan Krios 300 kV
[2] = target: T1, DSR2 CTD-only protein (ΔSIR2, aa 304-1005) (Bacillus subtilis 29R, UniProt P0DXN8 304-1005); assay: pull-down; N-terminal His-tagged TTP or DSAD1 on Ni-NTA agarose beads, excess untagged DSR2 variants added, 1 h at 4 °C, 25 mM Tris-HCl pH 7.5, 300 mM NaCl, washes with 10 mM imidazole, SDS-PAGE with Coomassie staining; details: both partners purified
T1 construct: DSR2 from Bacillus subtilis 29R, WP_029317421, C-terminal domain aa 304-1005; source: E. coli Rosetta (DE3), purified (Ni-NTA, TEV cleavage, anion exchange, gel filtration); not shown: His, N-terminal, cleaved; MBP, N-terminal, cleaved
T1 sequence (looked up): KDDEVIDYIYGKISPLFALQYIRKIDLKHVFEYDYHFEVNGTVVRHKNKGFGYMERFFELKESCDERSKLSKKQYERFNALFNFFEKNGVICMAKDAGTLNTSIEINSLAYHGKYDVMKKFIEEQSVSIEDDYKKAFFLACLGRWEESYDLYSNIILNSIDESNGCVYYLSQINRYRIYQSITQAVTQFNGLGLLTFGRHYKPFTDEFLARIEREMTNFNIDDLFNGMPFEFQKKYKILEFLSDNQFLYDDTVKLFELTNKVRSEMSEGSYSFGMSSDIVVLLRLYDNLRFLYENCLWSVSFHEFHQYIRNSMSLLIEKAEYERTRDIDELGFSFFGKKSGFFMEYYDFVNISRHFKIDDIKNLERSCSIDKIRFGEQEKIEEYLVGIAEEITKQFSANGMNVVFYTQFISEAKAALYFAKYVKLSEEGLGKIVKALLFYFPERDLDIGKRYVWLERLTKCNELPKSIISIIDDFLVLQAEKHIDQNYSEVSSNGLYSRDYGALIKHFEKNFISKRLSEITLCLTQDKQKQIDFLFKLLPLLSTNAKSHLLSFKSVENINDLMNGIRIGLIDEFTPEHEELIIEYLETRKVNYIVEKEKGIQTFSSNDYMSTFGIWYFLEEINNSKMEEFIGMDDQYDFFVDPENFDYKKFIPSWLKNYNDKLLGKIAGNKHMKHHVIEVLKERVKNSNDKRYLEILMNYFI

[3] = target: B2; assay: as above; details: both partners purified
[4] = target: B1; assay: cryo-EM structure; protein complexes (co-expressed and co-purified) or TTP tube at 0.5 mg/ml on Quantifoil Au grids, Titan Krios 300 kV; details: both partners purified
[5] = target: T2, DSR anti-defense 1 (DSAD1), His-tagged (UniProt Q796A8 1-120); assay: as above; details: both partners purified
T2 construct: phage-encoded DSAD1, WP_004399562; aa 1-9 not built in the cryo-EM model; Cloned into a pET-derived vector with an N-terminal His tag; also called anti-DSR2 protein; His-tagged DSAD1; source: E. coli Rosetta (DE3), purified (Ni-NTA, anion exchange, gel filtration); not shown: His, N-terminal, kept
T2 sequence: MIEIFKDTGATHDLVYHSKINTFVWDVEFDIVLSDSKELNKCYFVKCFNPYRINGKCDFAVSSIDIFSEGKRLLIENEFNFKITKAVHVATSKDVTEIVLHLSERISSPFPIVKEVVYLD

[6] = target: the molecule itself; assay: native gel or EMSA; purified DSR2 at 1 mg/mL in gel-filtration buffer (25 mM Tris-HCl pH 7.5, 150 mM NaCl, 2 mM DTT) on a 5% native gel, 120 V, 40 min, 4 °C, Coomassie staining

Binder: B1
- stoichiometry N [1]: 6
- binding result [2]: binds
- binding result [3]: binds

Binder: B2
- stoichiometry N [4]: 4 TTP per DSR2 tetramer
- stoichiometry N [5]: 1 DSAD1 per DSR2 dimer
- stoichiometry N [6]: 4
